In patent US11739297B2, “Method of increasing tumor killing activity of macrophages or monocytes comprising chimeric antigen receptor” (Carisma Therapeutics Inc., priority 2020, dated 2023):

B1: CD40L: Recombinant CD40 ligand (Peprotech), CD40 agonist (protein, UniProt P29965 113-261, looked up)
CD40 ligand, soluble form: MQKGDQNPQIAAHVISEASSKTTSVLQWAEKGYYTMSNNLVTLENGKQLTVKRQGLYYIYAQVTFCSNREASSQAPFIASLCLKSPGRFERILLRAANTHSSAKPCGQQSIHLGGVFELQPGASVFVNVTDPSQVSHGTGFTSFGLLKL
B2: IFN-γ: interferon cytokine that induces an M1 phenotype (protein, UniProt P01579 24-161, looked up)
Interferon gamma: QDPYVKEAENLKKYFNAGHSDVADNGTLFLGILKNWKEESDRKIMQSQIVSFYFKLFKNFKDDQSIQKSVETIKEDMNVKFFNSNKKKRDDFEKLTNYSVTDLNVQRKAIHELIQVMAELSPAAKTGKRKRSQMLFRG

What was measured:
[1] = tested on: HER2+ breast cancer cells (CRL2351); assay: Cytokine secretion of interferon treated HER2 CAR macrophages in co-culture (MSD); format: cell-based, human; settings: 150 nM CAR mRNA, E:T 3:1, 48 hours co-culture
Protocol: Human macrophages were electroporated with 150 nM HER2 CAR mRNA comprising m6AGCap1 and PsU modifications. HER2+ breast cancer cells (CRL2351) were co-cultured with CAR macrophages after the macrophages were transfected with the CAR mRNA at an Effector (CAR macrophage) to Target (cancer cell) ratio of 3:1. Supernatant was collected 48 hours after the cancer cells and macrophages were co-cultured and cytokine levels were measured using a Meso Scale Discovery (MSD) instrument.

human macrophages [2] = assay: Viability, CAR expression and M1/M2 markers of HER2 CAR mRNA electroporated macrophages cultured with cytokines; format: cell-based; settings: mRNA transfected CAR macrophages
Protocol: Human macrophages were electroporated with HER2 CAR mRNA comprising m6AGCap1 and PsU modifications. Cells were cultured with cytokines that induce an M1 phenotype such as IFN-alpha, IFN-beta, IFN-gamma, IFN-gamma plus lipopolysaccharide (LPS), TNF-alpha, IL-6 or a STING ligand (STING-L) for up to 48 hours and then cytokines were washed off and fresh media was added. CAR expression and M1 marker expression were measured on days 2 and 7 after transfection. Fluorescent labeled HER2+ breast cancer cells (CRL2351) were co-cultured with HER2 CAR macrophages two days after the macrophages were transfected. Cancer cell growth was monitored via its fluorescence on an Incucyte® live imaging microscope every four hours. The Effector (CAR macrophage) to Target (cancer cell) ratio was 5:1.
Five different mRNA modifications were also tested to determine if interferon treatment differentially affected macrophages transfected with mRNA comprising different modifications. Human macrophages were electroporated with HER2 CAR mRNA comprising different mRNA modifications. CAR expression and M1 markers were detected by Flow Cytometry (Attune) on day four after electroporation. Day 4 CAR macrophage cells were then co-cultured with a Nuc-Light labeled, HER2+ breast cancer cell line (CRL2351) at an Effector (CAR macrophage) to Target (cancer cell) ratio of 5:1. Cancer cell growth was monitored via its fluorescence on an Incucyte® live imaging microscope every four hours.
Human macrophages were electroporated with 300 nM CAR mRNA comprising m6AGCap1 and PsU modifications. Cells were cultured with 20 ng/mL IFNs for 24 hours and then the cells were washed to remove cytokines. CAR expression was detected by Flow Cytometry (Attune) on day 2 after transfection. Cells were then co-cultured with a Nuc-Light labeled, HER2+ breast cancer cell line (CRL2351) at the Effector to Target ratio of 3:1. Cancer cell growth was monitored via its fluorescence on an Incucyte® live imaging microscope. CAR expression and M1 markers in macrophages were detected by Flow Cytometry (Attune) on day 7 after transfection.

[3] = tested on: CRL-2351 cells expressing nuclear GFP; assay: Tumor cell killing by macrophages primed on agonist coated plates (Incucyte); format: cell-based, human; settings: plate-coated agonist, 3 h priming
Protocol: (§1) To generate Her2-Zeta CAR expressing macrophages, primary human macrophages were suspended in EP buffer (MaxCyte) containing 300 nM mRNA (TriLink) at a concentration of 90×10^6 cells/mL. 100 μL of cell mixture was added to an electroporation cassette (OC100×2; MaxCyte) and electroporated using the Experimental T cell 1 setting. Cells were removed from the cassette, plated in 3 mL of TexMACS media (Miltenyi Biotech) containing 20% FBS (Gibco) on UpCell plates (Thermo Scientific), and incubated overnight at 37 C and 5% CO2.
(§2) Recombinant CD40 ligand (Peprotech), 4-1BB ligand (Enzo Life Sciences), and 4-1BB receptor (Peprotech) were resuspended in molecular grade water to a stock concentration of 100 μg/mL. Stock solution was then used to create working solutions in PBS ranging from 2-0.002 μg/mL. 100 uL of working solution was added to wells in a 96-well plate and left at room temperature for 4 h.
Plates were removed from the incubator and left at room temperature for 30 min. Cells were detached from plate, counted using the NC-200 automated cell counter (Chemomtech), and re-suspended in TexMACS media with 10% FBS. […] Cell lysis was detected using Incucyte® analysis (Essen Bioscience). Tumor cell death was calculated by integrated GFP intensity per well relative to time 0.

[4] = tested on: Her2-Zeta CAR expressing macrophages; assay: M1 and M2 surface marker expression after agonist priming (flow cytometry); format: cell-based, human; settings: mRNA transduced CAR macrophages, 3 days on agonist coated wells
Protocol: as §1, §2
For detection of cell surface proteins, macrophages were plated onto wells coated with agonist molecules in a final volume of 200 uL TexMACS media+10% FBS+10 ng/mL GM-CSF and incubated for 3 days at 37 C and 5% CO2. Cells were incubated in 300 μL Accutase (Sigma) for 30 min and transferred to 96-well round bottom plate for staining. Cells were incubated in FACS buffer containing 20 μg/mL Her2-His for 20 min at RT, followed by incubation in Human TruStain FcX for 10 min at RT. […]

human macrophages [5] = assay: mCherry mRNA expression in transfected macrophages (Incucyte); format: cell-based; settings: mCherry mRNA (m6AGCap1 and PsU or N1mPsU), one day, different doses
Protocol: Human macrophages were transfected with mCherry mRNA comprising m6AGCap1 and PsU or N1mPsU modifications and were then cultured for one day with different doses of IFN-γ. mCherry expression was monitored on an Incucyte® live imaging microscope.
In order to determine whether an RNaseL inhibitor could rescue IFN-γ-induced instability of transfected mRNA, human macrophages were treated with 1 μM sunitinib (an RNaseL inhibitor) two hours prior to the transfection of mCherry mRNA comprising m6AGCap1 and PsU modifications. Transfected cells were then cultured for one day with different dosages of IFN-γ. mCherry expression was monitored on an Incucyte® live imaging microscope.
The effect of another RNaseL inhibitor (RLI or ABCE1) was also tested to further validate the concept. Human macrophages were co-transfected with mRNA encoding mCherry comprising m6AGCap 1 and PsU modifications and with mRNA encoding ABCE1.

Molecule	secretion of the cytokines IL-6, IL-8 and TNFα [1]	M1 phenotype (based on CD86 expression) (human macrophages [2])	M2 markers (based on CD163 expression) (human macrophages [2])	tumor killing ability of macrophages and CAR macrophages [3]	M1 phenotype (expression of M1 and M2 markers) [4]	mCherry expression (human macrophages [5])
IFN-α	increased secretion	induction of an M1 phenotype	reduction of M2 markers			
B1				significantly improved the tumor killing ability	induced an M1 phenotype	
B2	increased secretion	induction of an M1 phenotype	reduction of M2 markers			reduced mCherry mRNA expression
